Test results as given in article doi:10.1101/2021.04.22.440356.

Target: human ubiquitin (15N-ubiquitin of the peptide titration) (human) (UniProt P0CG48)
Assay: NMR titration

Chain of short peptide from the YUH1 N-terminus (1-10) (P35127 whole entry, looked up, tested part not stated): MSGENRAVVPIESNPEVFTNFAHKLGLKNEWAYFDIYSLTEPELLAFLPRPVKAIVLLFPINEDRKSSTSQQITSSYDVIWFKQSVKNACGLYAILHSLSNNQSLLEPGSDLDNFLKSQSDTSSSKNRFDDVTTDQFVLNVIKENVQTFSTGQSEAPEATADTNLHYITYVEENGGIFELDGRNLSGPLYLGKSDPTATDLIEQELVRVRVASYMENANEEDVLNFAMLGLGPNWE

Kd: 180 µM
Substance: short peptide from the YUH1 N-terminus (1-10) (from UniProt P35127 1-10)
